In patent US20190257837:

Target: T1, human recombinant nidogen-1 (intact, incubated without proteases), P14543
T1 chain: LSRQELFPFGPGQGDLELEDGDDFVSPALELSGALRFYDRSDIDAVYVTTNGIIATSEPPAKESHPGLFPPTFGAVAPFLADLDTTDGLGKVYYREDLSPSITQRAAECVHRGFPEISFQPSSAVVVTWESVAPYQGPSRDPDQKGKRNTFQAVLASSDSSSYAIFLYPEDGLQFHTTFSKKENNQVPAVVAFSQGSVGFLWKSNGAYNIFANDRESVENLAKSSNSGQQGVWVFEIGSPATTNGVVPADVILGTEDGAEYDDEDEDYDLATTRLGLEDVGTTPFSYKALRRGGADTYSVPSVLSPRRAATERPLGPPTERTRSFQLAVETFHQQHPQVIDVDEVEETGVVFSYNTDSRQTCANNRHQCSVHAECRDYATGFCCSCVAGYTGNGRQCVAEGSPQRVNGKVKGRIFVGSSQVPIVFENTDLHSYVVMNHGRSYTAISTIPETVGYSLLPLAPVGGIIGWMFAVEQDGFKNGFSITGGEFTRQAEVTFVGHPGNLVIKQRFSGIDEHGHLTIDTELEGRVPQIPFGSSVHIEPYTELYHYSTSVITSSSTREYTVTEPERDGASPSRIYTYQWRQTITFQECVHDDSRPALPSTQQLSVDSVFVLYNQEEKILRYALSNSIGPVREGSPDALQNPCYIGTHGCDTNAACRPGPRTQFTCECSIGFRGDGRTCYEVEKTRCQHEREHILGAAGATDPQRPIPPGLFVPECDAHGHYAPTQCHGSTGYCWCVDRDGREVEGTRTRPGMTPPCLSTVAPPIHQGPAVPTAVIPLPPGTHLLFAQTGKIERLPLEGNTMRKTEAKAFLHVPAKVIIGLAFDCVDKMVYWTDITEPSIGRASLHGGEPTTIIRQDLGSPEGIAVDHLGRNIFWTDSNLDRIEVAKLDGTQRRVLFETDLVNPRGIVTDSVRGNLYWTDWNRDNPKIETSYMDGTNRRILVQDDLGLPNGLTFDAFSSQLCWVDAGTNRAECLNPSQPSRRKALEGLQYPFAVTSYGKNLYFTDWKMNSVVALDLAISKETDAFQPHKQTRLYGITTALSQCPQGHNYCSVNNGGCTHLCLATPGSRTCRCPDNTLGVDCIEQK

B1: human recombinant cathepsin S (protein)
chain: LPDSVDWREKGCVTEVKYQGSCGACWAFSAVGALEAQLKLKTGKLVSLSAQNLVDCSTEKYGNKGCNGGFMTTAFQYIIDNKGIDSDASYPYKAMDQKCQYDSKYRAATCSKYTELPYGREDVLKEAVANKGPVSVGVDARHPSFFLYRSGVYYEPSCTQNVNHGVLVVGYGDLNGKEYWLVKNSWGHNFGEEGYIRMARNKGNHCGIASFPSYPEI
NIC levels after incubating nidogen-1 with CatS (competitive NIC ELISA): Approximately 5-fold higher levels of NIC were detected after incubating nidogen-1 with CatS for 24 h
